Results published in article PMC4125376.

Tests used:
C[C@H](O)C(=O)O = experiment: purified protein; type: biochemical, Babesia microti; details: NAD+
[1] = tested on: NC(=O)c1ccc[n+]([C@@H]2O[C@H](COP(=O)([O-])OP(=O)(O)OC[C@H]3O[C@@H](n4cnc5c(N)ncnc54)[C@H](O)[C@@H]3O)[C@@H](O)[C@H]2O)c1; experiment: purified protein; details: varied: cofactor

How did the Km (C[C@H](O)C(=O)O) turn out when “Babesia microti lactate dehydrogenase (BmLDH) (Babesia microti strain RI)” was run?
Its Km is 99.96 ± 22.33 mM.

What about the Km [1] of the same substance?
Its Km is 8.76 ± 0.57 mM.
